The values that follow come from patent publication US20110262929A1 (FORERUNNER PHARMA RESEARCH, published 2011).

One assay deals with T1, GST_HS6ST2_C1 (human, UniProt Q96MM7 454-539).
T1 construct: Expressed in E. coli BL21 (DE3); whole cell lysate blotted after SDS-PAGE; also called GST fusion of amino acids 308-393 of HS6ST2_N-short; not shown: N-terminal glutathione S-transferase (GST) of vector pGEX-6P-1, with the vector's linker
T1 sequence: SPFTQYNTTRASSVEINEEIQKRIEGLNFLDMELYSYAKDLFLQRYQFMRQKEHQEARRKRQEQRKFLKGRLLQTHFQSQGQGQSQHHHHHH
Nature of the assay: Western blot of E. coli whole cell lysate, antibody 10 µg/mL. The procedure:
(§1) GST_HS6ST2_N, GST_HS6ST2_mid, GST_HS6ST2_C, GST_HS6ST2_C1 and GST_HS6ST2_C2 were expressed in BL21 (DE3) Competent Cells (Takara Bio), and the whole cell lysates were resolved by SDS-PAGE electrophoresis and then transferred to PVDF membranes (Immobilon-P, Millipore) and Western blotted with the anti-HS6ST2 antibodies. The anti-HS6ST2 antibodies were used at 10 μg/mL, while the secondary antibody (HRP-anti mIgG, GE Healthcare) was used as a 3000-fold dilution, and blots were detected with ECL Western Blotting Detection Reagents (GE Healthcare). As a result, the anti-HS6ST2 antibodies A1, A10, B5, B6 and C8 bound to GST_HS6ST2_C2, A6 bound to GST_HS6ST2_C1, and C10 bound to GST_HS6ST2_N.
Background: A western blot detects proteins with antibodies after separation by electrophoresis.

Assay [1] deals with T2, secreted HS6ST2 (sHS6ST2_FLAG) (human, UniProt Q96MM7 170-605).
T2 construct: Purified from CHO supernatant on anti-FLAG gel; also called soluble HS6ST2
T2 sequence: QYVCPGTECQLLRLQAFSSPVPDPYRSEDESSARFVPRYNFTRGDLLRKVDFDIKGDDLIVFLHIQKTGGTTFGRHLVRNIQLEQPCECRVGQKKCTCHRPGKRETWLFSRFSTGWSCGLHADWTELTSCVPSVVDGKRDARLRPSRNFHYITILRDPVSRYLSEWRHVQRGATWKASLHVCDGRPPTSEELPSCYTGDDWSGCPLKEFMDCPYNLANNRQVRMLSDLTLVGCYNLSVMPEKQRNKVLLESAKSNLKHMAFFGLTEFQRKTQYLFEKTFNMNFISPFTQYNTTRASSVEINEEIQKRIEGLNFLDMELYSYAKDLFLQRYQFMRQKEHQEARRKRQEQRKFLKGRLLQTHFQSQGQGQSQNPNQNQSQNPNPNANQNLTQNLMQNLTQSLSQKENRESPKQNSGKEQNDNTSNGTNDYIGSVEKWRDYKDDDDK
Nature of the assay: sandwich ELISA: A6 coated at 5 µg/mL as capture, B5-biotin and C8-biotin (3 µg/mL each, mixed) as detectors.

The target of another assay is T3, GST_HS6ST2_C2 (human, UniProt Q96MM7 525-605).
T3 construct: Expressed in E. coli BL21 (DE3); whole cell lysate blotted after SDS-PAGE; also called GST fusion of amino acids 379-459 of HS6ST2_N-short; not shown: N-terminal glutathione S-transferase (GST) of vector pGEX-6P-1, with the vector's linker
T3 sequence: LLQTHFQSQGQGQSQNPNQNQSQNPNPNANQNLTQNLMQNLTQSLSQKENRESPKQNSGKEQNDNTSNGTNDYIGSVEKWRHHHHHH
The assay is described as follows: Western blot of E. coli whole cell lysate, antibody 10 µg/mL. How it is done:
as §1

The target in assay [2] is T2, secreted HS6ST2 (sHS6ST2_FLAG). Nature of the assay: flow cytometry: sHS6ST2_FLAG (50 µg/mL) held on heparan sulfate of DG44 cells, detected with C8 as primary antibody. The procedure:
Each anti-HS6ST2 antibody or mouse IgG1 (mIgG1, BD Biosciences Pharmingen) as a negative control was added to a final concentration of 2 μg/mL into 96-well U-bottom plates (Becton Dickinson) containing 5×10⁴ cells suspended in PBS (FACS buffer) supplemented with 0.5% bovine serum albumin and 0.1% NaN₃. After reaction on ice for 1 hour, the cells were washed with FACS buffer. Then, an FITC-labeled anti-mouse antibody (Goat F(ab′)₂ Fragment Anti-mouse IgG (H+L)-FITC, Beckman Coulter) was added as a secondary antibody, and the mixture was reacted on ice for 1 hour. The cells were washed with FACS buffer, and then suspended in FACS buffer containing 10 μg/mL propidium iodide (PI) (Sigma) and assayed by a flow cytometer (FACS Calibur, Becton Dickinson). The assay data were analyzed by CELLQuest software (Becton Dickinson), and the geo-mean of FITC fluorescent intensity was calculated for the PI-negative population of viable cells.
Then, binding of soluble HS6ST2 (sHS6ST2_FLAG) to DG44 cells was evaluated. DG44 cells were enzymatically treated, and then reacted with sHS6ST2_FLAG prepared at 50 μg/mL in FACS buffer at 4° C. for 3 hours. After washing, the cells were analyzed by flow cytometry in the same manner as in Example 3. The anti-HS6ST2 antibody C8 was used as a primary antibody and mIgG1 (BD Biosciences Pharmingen) was used as a negative control. […]

B1: anti-HS6ST2 antibody A6 (antibody, mouse IgG1, V domains shown)
VH: EVQLQQSGAELVRSGASVKLSCTASGFNIKDYYMHWVKQRPEQGLEWIGWIDPENDDTEYAPKFQGRATMTADTSSNTAYLQLSSLTSEDTAVYYCNAGYYGSGFAYWGQGTLVTVSA
VL: DIVMTQSPSSLTVTAGEKVTMRCKSSQSLLNSGNQKNYLTWYQQKPGQPPRLLIYWASIRESGVPDRFTGSGSGTDFTLTISSVQAEDLAVYYCQNDYSYPLTFGTGTKLELK
notes: also called clone A6
Regarding B1, the binding result (with GST_HS6ST2_C1; in assay [1]) was “binds” in each case.

B2: anti-HS6ST2 antibody C8 (antibody, mouse IgG1, V domains shown)
VH: EVQLQQSGAELVRSGASVKLSCTASGFNIKDYYMHWVKQRPEQGLEWIGWIDPDNDDTEYAPKFQGKATMTADTSSNTAYLQLSSLTSEDTAVYYCNAGNGNYWFAYWGQGTLVTVSA
VL: DVVMTQTPLSLPVSLGDQASISCRSSQSLVHSNGNTYLHWNLQKPGQSPKLLIYKVSNRFSGVPDRFSGSGSGTDFTLKISRVEAEDLGVYFCSQTTLVPYTFGGGTKLEIK
notes: also called clone C8; C8-biotin
As to B2, the binding result (with GST_HS6ST2_C2; in assay [2]) was “binds” in each case.
